Data reported in PMC6544042, “Switching the Post-translational Modification of Translation Elongation Factor EF-P” (Frontiers in Microbiology, 2019).

Substrate: Cc1cn([C@H]2C[C@H](O)[C@@H](COP(=O)(O)OP(=O)(O)O[C@H]3O[C@@H](C)[C@H](O)[C@@H](O)[C@H]3O)O2)c(=O)[nH]c1=O
Assay: anti-rhamnosylarginine Western blot, band intensity, Michaelis-Menten fit
Type: biochemical, Pseudomonas putida
Details: 2.5 μM unmodified EF-P of P. putida as acceptor, 0.1 μM EarP, 100 mM sodium phosphate pH 7.6, 30 °C, 20 s, commercial TDP-Rha

B1: EarPPpu (Pseudomonas putida KT2440) (protein)
chain: MKATWDIFCSVVDNYGDIGVTWRLARQLVAEHGLAVRLWVDDLNAFTPMCPGADATAAQQWQHGVDVRHWPAAWLPVAPADVVIGAFACQLPAAYVEAMRARPQPPLWLNLEYLSAEDWVEGCHGLPSPQPNGLRKVFFFPGFTDKTGGLLREGSLLARRDGFQQSAEARRAFLQGLGVDLVPGALLISLFAYENPQLGNWLDALATADQPCHLLVPQGRVVAGLSQWLGEGPLHVGDVRTRGALTVQVLPFVSQDDFDRLLWSCDFNAVRGEDSFVRAQWAGQPMLWHIYVQDENAHWEKLEAFLAHYRCGLSDDADAALLGLWRAWNMDFDMGQAWRAARQHWPELQQHARLWGARQAAQPDLATALVHFYRNSL
notes: C-terminal His6 tag kept; pBAD33-earPPpu, E. coli LMG194 host, Ni-NTA purified; GT-B fold, GT104 family
Km: 5 µM
